Assay [1] addresses T1, canine CD20 on cells (HEK293, MDCK II, CLBL-1 or native B cells) (canine, UniProt Q3C2E2 1-297).
T1 construct: also called dCD20; cCD20
T1 chain: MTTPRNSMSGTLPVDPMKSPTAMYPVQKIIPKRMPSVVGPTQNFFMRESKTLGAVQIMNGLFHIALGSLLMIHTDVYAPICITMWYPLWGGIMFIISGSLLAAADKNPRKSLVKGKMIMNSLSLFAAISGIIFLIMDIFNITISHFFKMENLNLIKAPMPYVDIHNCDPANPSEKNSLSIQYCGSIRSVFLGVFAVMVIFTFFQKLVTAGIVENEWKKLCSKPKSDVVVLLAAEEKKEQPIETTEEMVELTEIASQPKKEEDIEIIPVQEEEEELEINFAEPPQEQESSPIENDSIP
The assay is described as follows: flow cytometry, canine CD20 HEK293 cells, 10 µg/ml, FITC anti-canine IgG. On the procedure: A CD20 binding screen was performed on candidate proteins produced from the canine CD20 immunisation as described in Examples 2 and 3. CHO cells supernatants containing candidate antibodies were diluted to 10 μg/ml in FACS buffer (PBS containing 3% FBS) and screened for their ability to bind canine CD20 expressed on cell surface. In brief, 1-2×10⁵ canine CD20-expressing HEK cells were incubated with candidate mAbs for one hour at 4° C., at a fixed concentration of 10 μg/ml followed by incubation with 5 μg/ml of FITC-conjugated anti-canine IgG secondary antibody (Bethyl Laboratories) for 1 hour at 4° C. Cells incubated with anti-canine IgG FITC secondary antibody and without primary anti-canine CD20 antibody, or with isotype control primary antibody, were used as negative controls. The data were acquired on either a Beckman Coulter CytoFLEX or a BD Accuri C6 Plus flow cytometer and analysed using FlowJo software.

The target in assay [2] is canine CD3 on canine T cells (canine PBMC) (canine, UniProt P27597 22-202). The assay is described as follows: cell-based or functional assay.
Assay [3] addresses T2, canine CD3εδ-Fc (heterodimer of canine CD3ε-hIgG4PE-knob and canine CD3δ-hIgG4PE-hole) (canine).
T2 construct: also called CD3εδ-Fc fusion protein; copies: 1 + 1
As to the kind of experiment: SPR (Biacore 8K), CD3εδ-Fc amine-coupled to CM5 chip, multi-cycle kinetics, antibody 600-7.4 nM. On the procedure: Binding affinity of shortlisted candidates, described in Example 3, were assessed using Biacore 8K (Cytiva). Briefly, a CM5 Sensor Chip (Cytiva) was docked onto a Biacore 8K, equilibrated for 30′ at RT and then Running Buffer (10 mM HEPES pH6 150 mM NaCl 3 mM EDTA and 0.005% Tween20) was applied to the SPR chip surface. Canine CD3εδ-Fc was diluted into 10 mM acetate buffer pH4.5 and immobilised using standard amine coupling reaction. Antibodies dilutions were prepared by diluting the shortlisted candidates from 600 nM to 7.4 nM (5 concentrations with 1:3 dilutions) in running buffer and kinetics was assessed using multi-cycle kinetics method (120 sec association-300 sec dissociation). Kinetics and/or Affinity quantification was performed using Biacore Insight following standard analyses methods.
In general terms: SPR reads the build-up and loss of mass on a sensor chip optically.

Positions count from the first letter of the chain named.

By Kd is commonly meant the concentration at which binding is half-saturated.

canine CD3 on canine T cells (canine PBMC), sequence (P27597 22-202 limits assumed, chain 1 of 3): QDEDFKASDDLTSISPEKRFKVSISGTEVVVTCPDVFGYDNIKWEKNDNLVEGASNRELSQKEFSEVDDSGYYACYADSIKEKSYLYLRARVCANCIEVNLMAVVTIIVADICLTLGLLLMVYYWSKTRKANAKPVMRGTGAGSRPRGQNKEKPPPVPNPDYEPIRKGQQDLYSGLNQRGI
canine CD3 on canine T cells (canine PBMC), sequence (chain, as listed by the source limits assumed, chain 2 of 3): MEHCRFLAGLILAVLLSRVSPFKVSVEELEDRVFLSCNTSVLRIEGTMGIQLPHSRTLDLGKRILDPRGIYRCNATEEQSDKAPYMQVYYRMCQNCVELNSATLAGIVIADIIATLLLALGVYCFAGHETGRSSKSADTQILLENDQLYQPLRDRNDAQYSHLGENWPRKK
canine CD3 on canine T cells (canine PBMC), sequence (chain, as listed by the source limits assumed, chain 3 of 3): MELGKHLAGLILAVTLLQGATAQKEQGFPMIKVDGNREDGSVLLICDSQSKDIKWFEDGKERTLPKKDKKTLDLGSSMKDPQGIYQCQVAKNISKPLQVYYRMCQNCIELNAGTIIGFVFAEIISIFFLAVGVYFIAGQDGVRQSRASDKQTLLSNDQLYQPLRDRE
T2 sequence (chain, as listed by the source mutant limits assumed): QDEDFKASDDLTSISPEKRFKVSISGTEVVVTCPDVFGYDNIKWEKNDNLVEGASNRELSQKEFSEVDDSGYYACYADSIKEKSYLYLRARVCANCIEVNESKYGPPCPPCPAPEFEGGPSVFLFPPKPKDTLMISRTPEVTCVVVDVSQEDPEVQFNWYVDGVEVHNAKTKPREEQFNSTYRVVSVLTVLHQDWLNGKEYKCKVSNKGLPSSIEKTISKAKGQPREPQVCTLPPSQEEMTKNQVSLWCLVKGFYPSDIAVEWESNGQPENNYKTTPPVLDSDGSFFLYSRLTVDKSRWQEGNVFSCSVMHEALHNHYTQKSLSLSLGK

B1: PMX267 (monospecific anti-canine CD20, canine IgG-B, lambda C5) (antibody, V domains shown)
VH: EMQLVESGGDLVKPGGSLRLSCVASGFTFSRYHMSWVRQAPGKGLQWVAYIDSDGINTNYADAVKGRFTISRDNAKNTLYLQMNSLRAEDTALYYCTTFDYWGQGTLVTVSS
VL: SYVLTQLPSKNVTLKQPAHITCGGDNIGSKSVHWYQQKLGQAPVLIIYYDSSRPTGIPERFSGANSGNTATLTISGALAEDEADYYCQVWDSSGNVFGGGTHLTVLG
With B1, the binding result in assay [1] was “binds”.

B2: PMX232 (monospecific anti-canine CD20, canine IgG-B, lambda C5) (antibody, V domains shown)
VH: EMQLVESGGDLVKPGESLRLSCVASGISFNNYHMSWVRQAPGKGLQWVAYIDSVGTSTTYADAVKGRFTISRDNAKNTLYLQMNSLRAEDTAVYYCTTFDSWGQGTLVTVSS
VL: B1 VL with S52R, G94A
B2: in assay [1], the binding result is “binds”.

B3: PMX269 (monospecific anti-canine CD20, canine IgG-B, lambda C5) (antibody, V domains shown)
VH: EVRLVESGGDLVKPGGSLRLSCVASGLTFNRYYMSWVRQGPGKGLQWVAYIDSGGSPTTYADTVKGRFTISRDNAKNTLYLQMNSLRVEDTAVYYCTTLEYWGQGTLVTVSS
VL: B1 VL with S92T, G94A
Regarding B3, in assay [1], the binding result was “binds”.

B4: PMX271 (monospecific anti-canine CD20, canine IgG-B, lambda C5) (antibody, V domains shown)
VH: AVQLVESGGDLVKPGGSLRLSCVASGITFSRYHMSWVRQAPGKGLQWVAYINSGGSATSYTDAVKGRFSISRDNGKNTLYLQMNSLRVEDSAVYYCTTLDLWGQGTLVTVSS
VL: B1 VL with S52R, S75N, V89M, G94A
Take B4: in assay [1], the binding result was “binds”.

B5: PMX268 (monospecific anti-canine CD20, canine IgG-B, lambda C5) (antibody, V domains shown)
VH: EVQLVESGGDLMKPGGSLRLSCVASGITFSGYHMSWVRQAPGKGLQWVAFINSGRKNTAYADAVKGRFTISRDNAKNTLYLQMNSLRAEDTAIYYCTTLEFWGQGTLVTVSS
VL: B1 VL with S31N, S52R, A64V, S75N, V89M, G94A
For B5, the binding result in assay [1] is given as “binds”.

B6: PMX270 (monospecific anti-canine CD20, canine IgG-B, lambda C5) (antibody, V domains shown)
VH: EVQLVESGGDLVKPGGSLRLSCVASGFTFSRYYMTWVRQAPGKGLQWVAYINSDRRSTTYADAVKGRFTISRDNAKNTLYLQMNSLRAEDTAVYYCTTLEYWGQGTLVTVSS
VL: B1 VL with S52R, S75N, G94A
For B6, the binding result in assay [1] is “binds”.

B7: PMX241 (monospecific anti-canine CD20, canine IgG-B, lambda C5) (antibody, V domains shown)
VH: B5 VH with M12V, K56R, N57S, A59S
VL: B1 VL with S52R, S75N, V89M, G94V
Turning to B7, in assay [1], the binding result is “binds”.

B8: PMX255 (monospecific anti-canine CD20, canine IgG-B, lambda C5) (antibody, V domains shown)
VH: EVQLVESGGDLVKPGGSLRLSCVASGFTFSRYHMSWIRQAPGKGLQWVAFIDSDGSGARYADAVKGRFTFSRDNAKNTLYLQMNSLRAEDTAVYYCTSLEYWGQGTLVTVSS
VL: B1 VL with I27V, S52R, G94A
For the molecule B8, the binding result in assay [1] was “binds”.

B9: PMX235 (monospecific anti-canine CD20, canine IgG-B, lambda C5) (antibody, V domains shown)
VH: B6 VH with F27I, T35N, S53T, D54G, R55E, R56S, T59I, A61S
VL: B1 VL with V44A, S51N, S52R, G94D
For the molecule B9, the binding result in assay [1] is recorded as “binds”.

B10: PMX254 (monospecific anti-canine CD20, canine IgG-B, lambda C5) (antibody, V domains shown)
VH: B8 VH with A58T, N84S, Y101F
VL: B1 VL with G94A
For B10, the binding result in assay [1] is on record as “binds”.

B11: PMX172 in bispecific format (canine CD3 arm PMX172 x Rituximab arm, human IgG4PE knob-in-hole) (bispecific antibody)
heavy 1: EVQLVESGGDLVKPGGSLRLSCVASGFTFSSYHMSWVRQAPGKGLQWVAYSNSGGSRTSYADAVKGRFTISRDNAKNTLYLQMNSLRAEDTAVYYCASEGGGGRYGYKDYGMDYWGHGTSLFVSSASTKGPSVFPLAPCSRSTSESTAALGCLVKDYFPEPVTVSWNSGALTSGVHTFPAVLQSSGLYSLSSVVTVPSSSLGTKTYTCNVDHKPSNTKVDKRVESKYGPPCPPCPAPEFEGGPSVFLFPPKPKDTLMISRTPEVTCVVVDVSQEDPEVQFNWYVDGVEVHNAKTKPREEQFNSTYRVVSVLTVLHQDWLNGKEYKCKVSNKGLPSSIEKTISKAKGQPREPQVYTLPPSQCEMTKNQVSLSCAVKGFYPSDIAVEWESNGQPENNYKTTPPVLDSDGSFFLVSRLTVDKSRWQEGNVFSCSVMHEALHNRFTQKSLSLSLGK
light 1: SYVLTQLPSKNVTLKQPAHITCGGDNIGSKSVHWYQQKLGQAPVLIIYYDSSRPTGIPERFSGANSGNTATLTISGALAEDEADYYCQVWDSSAKAWVFGEGTQLTVLRTVAAPSVFIFPPSDEQLKSGTASVVCLLNNFYPREAKVQWKVDNALQSGNSQESVTEQDSKDSTYSLSSTLTLSKADYEKHKVYACEVTHQGLSSPVTKSFNRGEC
heavy 2: not shown
light 2: QIVLSQSPAILSASPGEKVTMTCRASSSVSYIHWFQQKPGSSPKPWIYATSNLASGVPVRFSGSGSGTSYSLTISRVEAEDAATYYCQQWTSNPPTFGGGTKLEIKRTVAAPSVFIFPPSDEQLKSGTASVVCLLNNFYPREAKVQWKVDNALQSGNSQESVTEQDSKDSTYSLSSTLTLSKADYEKHKVYACEVTHQGLSSPVTKSFNRGEC
As for B11, the “EC50 (M) of killing potency, bispecific killing of hCD20+GFP MDCK II cells by canine PBMC” value (“EC50 (M) of killing potency” below) in assay [2] was determined as 4.66e-09 M. Also, in assay [3], the equilibrium dissociation constant (Kd) stood at 447 nM.

B12: PMX171 in bispecific format (canine CD3 arm PMX171 x Rituximab arm, human IgG4PE knob-in-hole) (bispecific antibody)
heavy 1: B11 heavy 1 with V23E, S51I, S53N, R57G, Y95F, G103K
light 1: B11 light 1
heavy 2: not shown
light 2: B11 light 2
B12: in assay [2], the “EC50 (M) of killing potency” value amounted to 8.52e-09 M. In assay [3], this molecule registered a Kd of 517 nM.

B13: PMX186 in bispecific format (canine CD3 arm PMX186 x Rituximab arm, human IgG4PE knob-in-hole) (bispecific antibody)
heavy 1: B11 heavy 1 with Q3K, F27V, S31R, H33Y, S51I, R57T, G101V, G103E, R104I, Y110F
light 1: B11 light 1 with S52R
heavy 2: not shown
light 2: B11 light 2
Regarding B13, in assay [2], the “EC50 (M) of killing potency” value came to 1.29e-08 M. Besides, in assay [3], the Kd is 513 nM.

B14: PMX170 in bispecific format (canine CD3 arm PMX170 x Rituximab arm, human IgG4PE knob-in-hole) (bispecific antibody)
heavy 1: B11 heavy 1 with N84S, Y107F
light 1: B11 light 1
heavy 2: not shown
light 2: B11 light 2
Regarding B14, in assay [2], the “EC50 (M) of killing potency” value was 3.32e-09 M. The molecule further yielded an equilibrium dissociation constant (Kd) in assay [3] of 304 nM.

B15: PMX169 in bispecific format (canine CD3 arm PMX169 x Rituximab arm, human IgG4PE knob-in-hole) (bispecific antibody)
heavy 1: B11 heavy 1 with L4V, A24T, T28A, S30N, S31N, S51I, T58I, G103E, R104I, Y107F
light 1: B11 light 1
heavy 2: not shown
light 2: B11 light 2
B15: the “EC50 (M) of killing potency” value in assay [2] turned out to be 1.4e-08 M. This molecule returned a dissociation constant (Kd) in assay [3] of 854 nM.

These data come from US20240209086A1 (PETMEDIX, published 2024).
